Among the data in article PMC8763920, “Unprotected peptide macrocyclization and stapling via a fluorine-thiol displacement reaction” (Nature Communications, 2022) are helicity values, retold here.

*1 amine or outer side, *2 acyl side, *3 side chain or, on linkers, in order; H or OH if unused. Where a SMILES comes first, the peptide text is derived from it. Bridges are numbered along the chain shown (N, C = ends). [ ]: non-standard residue; d: D form. Benzene(1,3-(CH2SCH2CO)2) = O=C(CSCc1cccc(CSCC(=O)[*:2])c1)[*:1]; X3 = O=C(CSCCCCCCCCSCC(=O)[*:2])[*:1]; X2 = O=C(CSCCCCCCCSCC(=O)[*:2])[*:1]; X1 = O=C(CSCCCCCCSCC(=O)[*:2])[*:1]; X4 = O=C(CSCCCCCSCC(=O)[*:2])[*:1]; S5 = C=CCCC[C@](C)(N)C(=O)O; dDap = NC[C@@H](N)C(=O)O; Dap = NC[C@H](N)C(=O)O

This data set is described as follows: circular dichroism. Particulars: water; pH ns; 25 °C; 70 uM. (Circular dichroism is the unequal absorption of left and right circularly polarised light.)
As for `CC[C@H](C)[C@@H]1NC(=O)[C@@H](NC(=O)[C@H](CCC(=O)O)NC(=O)[C@@H]2CCCN2C(=O)[C@H](CC(N)=O)NC(=O)[C@H](CCC(=O)O)NC(C)=O)CNC(=O)CSCCCCCCSCC(=O)NC[C@@H](C(=O)N[C@@H](Cc2c[nH]cn2)C(=O)N[C@H](C(=O)N[C@@H](CCC(N)=O)C(=O)N[C@@H](CCCNC(=N)N)C(=O)N[C@H](C(=O)N[C@@H](CCSC)C(N)=O)C(C)C)C(C)C)NC(=O)[C@H](CC(=O)O)NC(=O)[C@H](CC(C)C)NC1=O` (Ac-ENPE[Dap]ILD[Dap]HVQRVM-NH2; linker 5-9 via X1), the helicity was 29%.

In turn, `CC(=O)N[C@@H](CCC(N)=O)C(=O)N[C@@H](CO)C(=O)N[C@@H](CCC(N)=O)C(=O)N[C@@H](CCC(N)=O)C(=O)N[C@H](C(=O)N[C@@H](Cc1ccccc1)C(=O)N[C@H]1CNC(=O)CSCCCCCCCCSCC(=O)NC[C@@H](C(=O)N[C@@H](CCC(N)=O)C(=O)N[C@@H](CC(N)=O)C(N)=O)NC(=O)[C@H](CC(C)C)NC(=O)[C@H](CC(C)C)NC(=O)[C@H](CCCNC(=N)N)NC(=O)[C@H](Cc2c[nH]c3ccccc23)NC(=O)[C@H](CC(C)C)NC(=O)[C@H](CC(N)=O)NC1=O)[C@@H](C)O` registered a helicity of 42%. In the case of `CC[C@H](C)[C@@H]1NC(=O)[C@H](NC(=O)[C@H](CCC(=O)O)NC(=O)[C@@H]2CCCN2C(=O)[C@H](CC(N)=O)NC(=O)[C@H](CCC(=O)O)NC(C)=O)CNC(=O)CSCCCCCCSCC(=O)NC[C@H](C(=O)N[C@@H](Cc2c[nH]cn2)C(=O)N[C@H](C(=O)N[C@@H](CCC(N)=O)C(=O)N[C@@H](CCCNC(=N)N)C(=O)N[C@H](C(=O)N[C@@H](CCSC)C(N)=O)C(C)C)C(C)C)NC(=O)[C@H](CC(=O)O)NC(=O)[C@H](CC(C)C)NC1=O` (Ac-ENPE[dDap]ILD[dDap]HVQRVM-NH2; linker 5-9 via X1) it was 28%; in that of `CC[C@H](C)[C@@H]1NC(=O)[C@H](NC(=O)[C@H](CCC(=O)O)NC(=O)[C@@H]2CCCN2C(=O)[C@H](CC(N)=O)NC(=O)[C@H](CCC(=O)O)NC(C)=O)CNC(=O)CSCCCCCSCC(=O)NC[C@H](C(=O)N[C@@H](Cc2c[nH]cn2)C(=O)N[C@H](C(=O)N[C@@H](CCC(N)=O)C(=O)N[C@@H](CCCNC(=N)N)C(=O)N[C@H](C(=O)N[C@@H](CCSC)C(N)=O)C(C)C)C(C)C)NC(=O)[C@H](CC(=O)O)NC(=O)[C@H](CC(C)C)NC1=O` (Ac-ENPE[dDap]ILD[dDap]HVQRVM-NH2; linker 5-9 via X4), 14%.

In the case of `CC[C@H](C)[C@@H]1NC(=O)[C@H](NC(=O)[C@H](CCC(=O)O)NC(=O)[C@@H]2CCCN2C(=O)[C@H](CC(N)=O)NC(=O)[C@H](CCC(=O)O)NC(C)=O)CNC(=O)CSCCCCCCCCSCC(=O)NC[C@H](C(=O)N[C@@H](Cc2c[nH]cn2)C(=O)N[C@H](C(=O)N[C@@H](CCC(N)=O)C(=O)N[C@@H](CCCNC(=N)N)C(=O)N[C@H](C(=O)N[C@@H](CCSC)C(N)=O)C(C)C)C(C)C)NC(=O)[C@H](CC(=O)O)NC(=O)[C@H](CC(C)C)NC1=O` (Ac-ENPE[dDap]ILD[dDap]HVQRVM-NH2; linker 5-9 via X3), the helicity worked out at 25%.

On to `CC[C@H](C)[C@@H]1NC(=O)[C@@H](NC(=O)[C@H](CCC(=O)O)NC(=O)[C@@H]2CCCN2C(=O)[C@H](CC(N)=O)NC(=O)[C@H](CCC(=O)O)NC(C)=O)CNC(=O)CSCc2cccc(c2)CSCC(=O)NC[C@@H](C(=O)N[C@@H](Cc2c[nH]cn2)C(=O)N[C@H](C(=O)N[C@@H](CCC(N)=O)C(=O)N[C@@H](CCCNC(=N)N)C(=O)N[C@H](C(=O)N[C@@H](CCSC)C(N)=O)C(C)C)C(C)C)NC(=O)[C@H](CC(=O)O)NC(=O)[C@H](CC(C)C)NC1=O`, for which the helicity was 46%. For `CC[C@H](C)[C@@H]1NC(=O)[C@@H](NC(=O)[C@H](CCC(=O)O)NC(=O)[C@@H]2CCCN2C(=O)[C@H](CC(N)=O)NC(=O)[C@H](CCC(=O)O)NC(C)=O)CNC(=O)CSCCCCCCCCSCC(=O)NC[C@H](C(=O)N[C@@H](Cc2c[nH]cn2)C(=O)N[C@H](C(=O)N[C@@H](CCC(N)=O)C(=O)N[C@@H](CCCNC(=N)N)C(=O)N[C@H](C(=O)N[C@@H](CCSC)C(N)=O)C(C)C)C(C)C)NC(=O)[C@H](CC(=O)O)NC(=O)[C@H](CC(C)C)NC1=O` (Ac-ENPE[Dap]ILD[dDap]HVQRVM-NH2; linker 5-9 via X3), the helicity is 14%. The compound `CC[C@H](C)[C@@H]1NC(=O)[C@@H](NC(=O)[C@H](CCC(=O)O)NC(=O)[C@@H]2CCCN2C(=O)[C@H](CC(N)=O)NC(=O)[C@H](CCC(=O)O)NC(C)=O)CNC(=O)CSCCCCCSCC(=O)NC[C@@H](C(=O)N[C@@H](Cc2c[nH]cn2)C(=O)N[C@H](C(=O)N[C@@H](CCC(N)=O)C(=O)N[C@@H](CCCNC(=N)N)C(=O)N[C@H](C(=O)N[C@@H](CCSC)C(N)=O)C(C)C)C(C)C)NC(=O)[C@H](CC(=O)O)NC(=O)[C@H](CC(C)C)NC1=O` (Ac-ENPE[Dap]ILD[Dap]HVQRVM-NH2; linker 5-9 via X4) yielded a helicity of 24%. As for `CC[C@H](C)[C@@H]1NC(=O)[C@@H](NC(=O)[C@H](CCC(=O)O)NC(=O)[C@@H]2CCCN2C(=O)[C@H](CC(N)=O)NC(=O)[C@H](CCC(=O)O)NC(C)=O)CNC(=O)CSCCCCCCCSCC(=O)NC[C@@H](C(=O)N[C@@H](Cc2c[nH]cn2)C(=O)N[C@H](C(=O)N[C@@H](CCC(N)=O)C(=O)N[C@@H](CCCNC(=N)N)C(=O)N[C@H](C(=O)N[C@@H](CCSC)C(N)=O)C(C)C)C(C)C)NC(=O)[C@H](CC(=O)O)NC(=O)[C@H](CC(C)C)NC1=O` (Ac-ENPE[Dap]ILD[Dap]HVQRVM-NH2; linker 5-9 via X2), the figure is 18%.

As for `CC(=O)N[C@@H](CCC(N)=O)C(=O)N[C@@H](CO)C(=O)N[C@@H](CCC(N)=O)C(=O)N[C@@H](CCC(N)=O)C(=O)N[C@H](C(=O)N[C@@H](Cc1ccccc1)C(=O)N[C@H]1CNC(=O)CSCc2ccc(cc2)-c2ccc(cc2)CSCC(=O)NC[C@@H](C(=O)N[C@@H](CCC(N)=O)C(=O)N[C@@H](CC(N)=O)C(N)=O)NC(=O)[C@H](CC(C)C)NC(=O)[C@H](CC(C)C)NC(=O)[C@H](CCCNC(=N)N)NC(=O)[C@H](Cc2c[nH]c3ccccc23)NC(=O)[C@H](CC(C)C)NC(=O)[C@H](CC(N)=O)NC1=O)[C@@H](C)O`, the helicity was found to be 16%. As for `CC[C@H](C)[C@@H]1NC(=O)[C@@H](NC(=O)[C@@H](N)CCC(=O)O)CNC(=O)CSCc2cccc(c2)CSCC(=O)NC[C@@H](C(=O)N[C@@H](Cc2c[nH]cn2)C(=O)O)NC(=O)[C@H](CC(=O)O)NC(=O)[C@H](CC(C)C)NC1=O` (H-E[Dap]ILD[Dap]H-OH; linker 2-6 via Benzene(1,3-(CH2SCH2CO)2)), the figure is 41%. As for `CC[C@H](C)[C@@H]1NC(=O)[C@@](C)(NC(=O)[C@H](CCC(=O)O)NC(=O)[C@@H]2CCCN2C(=O)[C@H](CC(N)=O)NC(=O)[C@H](CCC(=O)O)NC(C)=O)CCCC=CCCC[C@@](C)(C(=O)N[C@@H](Cc2c[nH]cn2)C(=O)N[C@H](C(=O)N[C@@H](CCC(N)=O)C(=O)N[C@@H](CCCNC(=N)N)C(=O)N[C@H](C(=O)N[C@@H](CCSC)C(N)=O)C(C)C)C(C)C)NC(=O)[C@H](CC(=O)O)NC(=O)[C@H](CC(C)C)NC1=O` (Ac-ENPE[S5]ILD[S5]HVQRVM-NH2; staple 5-9), the figure is 48%; as for `CC[C@H](C)[C@@H]1NC(=O)[C@H](NC(=O)[C@H](CCC(=O)O)NC(=O)[C@@H]2CCCN2C(=O)[C@H](CC(N)=O)NC(=O)[C@H](CCC(=O)O)NC(C)=O)CNC(=O)CSCc2ccc(cc2)CSCC(=O)NC[C@H](C(=O)N[C@@H](Cc2c[nH]cn2)C(=O)N[C@H](C(=O)N[C@@H](CCC(N)=O)C(=O)N[C@@H](CCCNC(=N)N)C(=O)N[C@H](C(=O)N[C@@H](CCSC)C(N)=O)C(C)C)C(C)C)NC(=O)[C@H](CC(=O)O)NC(=O)[C@H](CC(C)C)NC1=O`, 19%. As for `CC(=O)N[C@@H](CCC(N)=O)C(=O)N[C@@H](CO)C(=O)N[C@@H](CCC(N)=O)C(=O)N[C@@H](CCC(N)=O)C(=O)N[C@H](C(=O)N[C@@H](Cc1ccccc1)C(=O)N[C@H]1CNC(=O)CSCCCCCCCSCC(=O)NC[C@@H](C(=O)N[C@@H](CCC(N)=O)C(=O)N[C@@H](CC(N)=O)C(N)=O)NC(=O)[C@H](CC(C)C)NC(=O)[C@H](CC(C)C)NC(=O)[C@H](CCCNC(=N)N)NC(=O)[C@H](Cc2c[nH]c3ccccc23)NC(=O)[C@H](CC(C)C)NC(=O)[C@H](CC(N)=O)NC1=O)[C@@H](C)O`, the figure is 36%; as for `CC[C@H](C)[C@@H]1NC(=O)[C@@H](NC(=O)[C@H](CCC(=O)O)NC(=O)[C@@H]2CCCN2C(=O)[C@H](CC(N)=O)NC(=O)[C@H](CCC(=O)O)NC(C)=O)CNC(=O)CSCCCCCCCCSCC(=O)NC[C@@H](C(=O)N[C@@H](Cc2c[nH]cn2)C(=O)N[C@H](C(=O)N[C@@H](CCC(N)=O)C(=O)N[C@@H](CCCNC(=N)N)C(=O)N[C@H](C(=O)N[C@@H](CCSC)C(N)=O)C(C)C)C(C)C)NC(=O)[C@H](CC(=O)O)NC(=O)[C@H](CC(C)C)NC1=O` (Ac-ENPE[Dap]ILD[Dap]HVQRVM-NH2; linker 5-9 via X3), 25%; as for `CC[C@H](C)[C@@H]1NC(=O)[C@H](NC(=O)[C@H](CCC(=O)O)NC(=O)[C@@H]2CCCN2C(=O)[C@H](CC(N)=O)NC(=O)[C@H](CCC(=O)O)NC(C)=O)CNC(=O)CSCCCCCCCSCC(=O)NC[C@@H](C(=O)N[C@@H](Cc2c[nH]cn2)C(=O)N[C@H](C(=O)N[C@@H](CCC(N)=O)C(=O)N[C@@H](CCCNC(=N)N)C(=O)N[C@H](C(=O)N[C@@H](CCSC)C(N)=O)C(C)C)C(C)C)NC(=O)[C@H](CC(=O)O)NC(=O)[C@H](CC(C)C)NC1=O` (Ac-ENPE[dDap]ILD[Dap]HVQRVM-NH2; linker 5-9 via X2), 19%. Regarding `CC[C@H](C)[C@@H]1NC(=O)[C@@H](NC(=O)[C@H](CCC(=O)O)NC(=O)[C@@H]2CCCN2C(=O)[C@H](CC(N)=O)NC(=O)[C@H](CCC(=O)O)NC(C)=O)CNC(=O)CSCc2ccc(cc2)CSCC(=O)NC[C@@H](C(=O)N[C@@H](Cc2c[nH]cn2)C(=O)N[C@H](C(=O)N[C@@H](CCC(N)=O)C(=O)N[C@@H](CCCNC(=N)N)C(=O)N[C@H](C(=O)N[C@@H](CCSC)C(N)=O)C(C)C)C(C)C)NC(=O)[C@H](CC(=O)O)NC(=O)[C@H](CC(C)C)NC1=O`, the helicity turned out to be 17%.
